Results on one molecule are retold here after paper PMC2688778 (Structure (London, England : 1993), 2009).

The series concerns the target T1, RecE564 del858-866 (Escherichia coli K12, UniProt P15032 564-857, del858-866).
T1 sequence: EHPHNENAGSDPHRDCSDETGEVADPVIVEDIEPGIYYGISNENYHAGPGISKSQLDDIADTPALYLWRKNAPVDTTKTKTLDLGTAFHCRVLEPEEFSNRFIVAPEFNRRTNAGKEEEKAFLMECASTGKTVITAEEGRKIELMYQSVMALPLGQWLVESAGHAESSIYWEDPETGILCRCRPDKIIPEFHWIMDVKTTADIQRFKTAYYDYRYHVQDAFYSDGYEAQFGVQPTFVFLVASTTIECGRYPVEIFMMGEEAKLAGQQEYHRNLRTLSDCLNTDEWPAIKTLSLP
Briefly: fluorescence anisotropy. (In general: Fluorescence polarisation rises when a labelled molecule tumbles more slowly, as on binding a larger partner.)

B1: F25 (dsDNA)
DNA 1: TAGAGCTTAATTGCTGAATCTGGTG
DNA 2: CACCAGATTCAGCAATTAAGCTCTA
The molecule B1 gave a Kd of 660 ± 80 nM.

As a reminder, the Kd is the equilibrium constant for the complex coming apart. A lower Kd goes with a tighter complex.
